{"source": "patent US20170158777A1", "about": "(ORUM THERAPEUTICS, published 2017)", "binders": {"B1": {"name": "RGD10 peptide-fused anti-Ras•GTP iMab RT11 (antibody, V domains shown)", "VH": "EVQLVESGGGLVQPGGSLRLSCAASGFTFSSYSMSWVRQAPGKGLEWVSYISRTSHTTYYADSVKGRFTISRDNSKNTLYLQMNSLRAEDTAVYYCARGFFMDYWGQGTLVTVSS", "VL": "DLVMTQSPSSLSASVGDRVTITCKSSQSLFNSRTRKNYLAWYQQKPGKAPKLLIYWASTRESGVPSRFSGSGSGTDFTLTISSLQPEDFATYYCQQYYYHMYTFGQGTKVEIKR", "notes": "also called RGD10-RT11; RGD10 peptide-fused RT11"}}, "target": "T1, integrin ανβ3 on K562 integrin ανβ3-overexpressing cells (UniProt P06756 31-1048; P05106 27-788)", "T1 construct": "whole, on cells; Heterodimer overexpressed on K562 cells; Parental K562 cells served as the comparison; also called K562 integrin ανβ3 cells", "experiment": "FACS on K562 integrin ανβ3-overexpressing cells, 100 nM antibody with 300 IU/ml heparin", "method": "Specifically, each of a K562 cell line and a K562 integrin ανβ3-overexpressing cell line was added to 1.5 ml at a density of 2×10⁵ cells, then washed twice with washing buffer (pH 7.4 PBS, 2% FBS). […] The cells were washed twice with washing buffer, and then stained with an Alexa488 (green fluorescence)-labeled antibody (Invitrogen) that specifically recognizes human IgG, at 4° for 1 hour. Next, the cells were washed twice with washing buffer, and analyzed by FACS.", "data": [{"binder": "B1", "values": [{"measurement": "binding result", "value": "binds"}]}]}
